According to IntAct's records for PubMed 30354839:

B1: RNA-binding protein FUS (Homo sapiens), P35637 (parent)
chain: MASNDYTQQATQSYGAYPTQPGQGYSQQSSQPYGQQSYSGYSQSTDTSGYGQSSYSSYGQSQNTGYGTQSTPQGYGSTGGYGSSQSSQSSYGQQSSYPGYGQQPAPSSTSGSYGSSSQSSSYGQPQSGSYSQQPSYGGQQQSYGQQQSYNPPQGYGQQNQYNSSSGGGGGGGGGGNYGQDQSSMSSGGGSGGGYGNQDQSGGGGSGGYGQQDRGGRGRGGSGGGGGGGGGGYNRSSGGYEPRGRGGGRGGRGGMGGSDRGGFNKFGGPRDQGSRHDSEQDNSDNNTIFVQGLGENVTIESVADYFKQIGIIKTNKKTGQPMINLYTDRETGKLKGEATVSFDDPPSAKAAIDWFDGKEFSGNPIKVSFATRRADFNRGGGNGRGGRGRGGPMGRGGYGGGGSGGGGRGGFPSGGGGGGGQQRAGDWKCPNPTCENMNFSWRNECNQCKAPKPDGPGGGPGGSHMGGNYGDDRRGGRGGYDRGGYRGRGGDRGGFRGGRGGGDRGGFGPGKMDSRGEHRQDRRERPY
B2: RNA-binding protein Raly (Homo sapiens), Q9UKM9 (parent)
chain: MSLKLQASNVTNKNDPKSINSRVFIGNLNTALVKKSDVETIFSKYGRVAGCSVHKGYAFVQYSNERHARAAVLGENGRVLAGQTLDINMAGEPKPDRPKGLKRAASAIYSGYIFDYDYYRDDFYDRLFDYRGRLSPVPVPRAVPVKRPRVTVPLVRRVKTNVPVKLFARSTAVTTSSAKIKLKSSELQAIKTELTQIKSNIDALLSRLEQIAAEQKANPDGKKKGDGGGAGGGGGGGGSGGGGSGGGGGGGSSRPPAPQENTTSEAGLPQGEARTRDDGDEEGLLTHSEEELEHSQDTDADDGALQ

What was measured:
raly_mouse Raly, Q64012 = variants of: B1; conditions: with raly_mouse Raly
Chain of raly_mouse Raly, Q64012 (Q64012 whole entry): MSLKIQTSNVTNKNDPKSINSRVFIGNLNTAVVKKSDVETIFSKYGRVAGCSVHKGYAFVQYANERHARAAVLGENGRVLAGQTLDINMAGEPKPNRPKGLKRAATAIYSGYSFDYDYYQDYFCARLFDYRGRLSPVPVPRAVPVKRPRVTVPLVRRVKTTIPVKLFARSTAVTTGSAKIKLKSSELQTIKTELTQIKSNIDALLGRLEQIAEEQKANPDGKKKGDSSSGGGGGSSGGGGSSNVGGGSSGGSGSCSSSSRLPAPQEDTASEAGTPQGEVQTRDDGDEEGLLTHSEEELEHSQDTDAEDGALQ

raly_human RALY, Q9UKM9 = variants of: B1; conditions: with raly_human RALY
fus_human FUS, P35637 = variants of: B2; conditions: with fus_human FUS

Row | effect of a mutation on the interaction (raly_mouse Raly, Q64012) | effect of a mutation on the interaction (raly_human RALY, Q9UKM9) | effect of a mutation on the interaction (fus_human FUS, P35637) | Variant
1 | with no effect | with no effect |  | MASNDYTQQATQSYGAYPTQPGQGYSQQSSQPYGQQSYSGYSQSTDTSGYGQSSYSSYGQSQNTGYGTQSTPQGYGSTGGYGSSQSSQSSYGQQSSYPGYGQQPAPSSTSGSYGSSSQSSSYGQPQSGSYSQQPSYGGQQQSYGQQQSYNPPQGYGQQNQYNSSSGGGGGGGGGGNYGQDQSSMSSGGGSGGGYGNQDQSGGGGSGGYGQQDRGGRGRGGSGGGGGGGGGGYNRSSGGYEPRGRGGGRGGRGGMGGSDRGGFNKFGGPRDQGSRHDSEQDNSDNNTIFVQGLGENVTIESVADYFKQIGIIKTNKKTGQPMINLYTDRETGKLKGEATVSFDDPPSAKAAIDWFDGKEFSGNPIKVSFATRRADFNRGGGNGRGGRGRGGPMGRGGYGGGGSGGGGRGGFPSGGGGGGGQQRAGDWKCPNPTCENMNFSWRNECNQCKAPKPDGPGGGPGGSHMGGNYGDDRRGGRGGYDRGGYRGRGGDRGGFRGGRGGGDRGGFGPGKMDSRGEHRQDCRERPY [R521C]
2 | with no effect | with no effect |  | MASNDYTQQATQSYGAYPTQPGQGYSQQSSQPYGQQSYSGYSQSTDTSGYGQSSYSSYGQSQNTGYGTQSTPQGYGSTGGYGSSQSSQSSYGQQSSYPGYGQQPAPSSTSGSYGSSSQSSSYGQPQSGSYSQQPSYGGQQQSYGQQQSYNPPQGYGQQNQYNSSSGGGGGGGGGGNYGQDQSSMSSGGGSGGGYGNQDQSGGGGSGGYGQQDRGGRGRGGSGGGGGGGGGGYNRSSGGYEPRGRGGGRGGRGGMGGSDRGGFNKFGGPRDQGSRHDSEQDNSDNNTIFVQGLGENVTIESVADYFKQIGIIKTNKKTGQPMINLYTDRETGKLKGEATVSFDDPPSAKAAIDWFDGKEFSGNPIKVSFATRRADFNRGGGNGRGGRGRGGPMGRGGYGGGGSGGGGRGGFPSGGGGGGGQQRAGDWKCPNPTCENMNFSWRNECNQCKAPKPDGPGGGPGGSHMGGNYGDDRRGGRGGYDRGGYRGRGGDRGGFRGGRGGGDRGGFGPGKMDSRGEHRQDHRERPY [R521H]
3 | with no effect | with no effect |  | MASNDYTQQATQSYGAYPTQPGQGYSQQSSQPYGQQSYSGYSQSTDTSGYGQSSYSSYGQSQNTGYGTQSTPQGYGSTGGYGSSQSSQSSYGQQSSYPGYGQQPAPSSTSGSYGSSSQSSSYGQPQSGSYSQQPSYGGQQQSYGQQQSYNPPQGYGQQNQYNSSSGGGGGGGGGGNYGQDQSSMSSGGGSGGGYGNQDQSGGGGSGGYGQQDRGGRGRGGSGGGGGGGGGGYNRSSGGYEPRGRGGGRGGRGGMGGSDRGGFNKFGGPRDQGSRHDSEQDNSDNNTIFVQGLGENVTIESVADYFKQIGIIKTNKKTGQPMINLYTDRETGKLKGEATVSFDDPPSAKAAIDWFDGKEFSGNPIKVSFATRRADFNRGGGNGRGGRGRGGPMGRGGYGGGGSGGGGRGGFPSGGGGGGGQQRAGDWKCPNPTCENMNFSWRNECNQCKAPKPDGPGGGPGGSHMGGNYGDDRRGGRGGYDRGGYRGRGGDRGGFRGGRGGGDRGGFGPGKMDSRGEHRQDRRERLY [P525L]
4 |  |  | with no effect | P148A;R149A
